Experimental data published in PMC6555819, “Comprehensive study of nuclear receptor DNA binding provides a revised framework for understanding receptor specificity”.

Columns and labels:
PPARg:RXRa = PPARg:RXRa (Homo sapiens, UniProt P37231;P19793 full;full); test: no ligand; PBM; 180 nM : 90 nM RXRa; PBS pH 7.4, 2% milk, 0.02% Triton X-100, 1 mM DTT, BSA, 0.4 mg/ml salmon testes DNA; conditions: tags: His kept;His cleaved; copies: 1;1; label: surface-attached array probe
RXRa = RXRa (Homo sapiens, UniProt P19793); test: no ligand; PBM; 180 nM; PBS pH 7.4, 2% milk, 0.02% Triton X-100, 1 mM DTT, BSA, 0.4 mg/ml salmon testes DNA; conditions: tags: His cleaved; chain copies: 2; label: surface-attached array probe
RARb:RXRa = RARb:RXRa (Homo sapiens, UniProt P10826;P19793 full;full); test: no ligand; PBM; 270 nM : 90 nM RXRa; PBS pH 7.4, 2% milk, 0.02% Triton X-100, 1 mM DTT, BSA, 0.4 mg/ml salmon testes DNA; conditions: tags: His kept;His cleaved; copies: 1;1; label: surface-attached array probe
In short: (§1)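 The probes on custom Agilent 4×180K protein-binding microarrays were double-stranded, with 34-nt variable regions bearing direct-repeat seeds, single-nucleotide variants, half-site ablations and random human genomic background sequences. Incubation lasted 1 h with ligand-free nuclear receptor dimers in PBS pH 7.4, 2% milk, 0.02% Triton X-100, 1 mM DTT, 0.2 mg/mL BSA and 0.4 mg/ml salmon testes DNA. Antibodies against each partner (one per run) detected bound dimers, and fluorescence scans were regression-normalized. Binding z-scores take the random background probes as reference.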

LXRa:RXRa = LXRa:RXRa (Homo sapiens, UniProt Q13133;P19793 full;full); test: as above; conditions: tags: His kept;His cleaved; copies: 1;1; label: surface-attached array probe
In short: as §1

PPARa:RXRa = PPARa:RXRa (Homo sapiens, UniProt Q07869;P19793 full;full); test: as above; conditions: tags: GST kept;His cleaved; copies: 1;1; label: surface-attached array probe
In short: as §1

LXRb:RXRa = LXRb:RXRa (Homo sapiens, UniProt P55055;P19793 full;full); test: as above; conditions: tags: His kept;His cleaved; copies: 1;1; label: surface-attached array probe
In short: as §1

FXR:RXRa = FXR:RXRa (Homo sapiens, UniProt Q96RI1;P19793 full;full); test: as above; conditions: tags: His kept;His cleaved; copies: 1;1; label: surface-attached array probe
In short: as §1

PXR:RXRa = PXR:RXRa (Homo sapiens, UniProt O75469;P19793 full;full); test: as above; conditions: tags: His kept;His cleaved; copies: 1;1; label: surface-attached array probe
In short: as §1

RARg:RXRa = RARg:RXRa (Homo sapiens, UniProt P13631;P19793 full;full); test: as above; conditions: tags: His kept;His cleaved; copies: 1;1; label: surface-attached array probe
In short: as §1

VDR:RXRa = VDR:RXRa (Homo sapiens, UniProt P11473;P19793 full;full); test: as above; conditions: tags: His kept;His cleaved; copies: 1;1; label: surface-attached array probe
In short: as §1

Sequence of PPARg:RXRa (P37231 29-505, chain 1 of 2): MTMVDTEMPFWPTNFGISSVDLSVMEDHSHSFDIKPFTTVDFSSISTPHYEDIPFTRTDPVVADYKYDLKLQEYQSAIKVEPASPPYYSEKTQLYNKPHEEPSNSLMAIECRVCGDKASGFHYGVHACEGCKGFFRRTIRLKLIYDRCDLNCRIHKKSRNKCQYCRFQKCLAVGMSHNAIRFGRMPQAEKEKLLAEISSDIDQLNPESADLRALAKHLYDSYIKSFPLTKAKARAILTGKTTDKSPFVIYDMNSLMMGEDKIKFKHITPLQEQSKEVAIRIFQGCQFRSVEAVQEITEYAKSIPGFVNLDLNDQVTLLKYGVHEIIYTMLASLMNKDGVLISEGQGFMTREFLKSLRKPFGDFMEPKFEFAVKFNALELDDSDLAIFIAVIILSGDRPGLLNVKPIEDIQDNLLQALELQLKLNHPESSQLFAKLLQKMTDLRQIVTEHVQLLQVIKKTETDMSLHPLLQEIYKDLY
Sequence of PPARg:RXRa (P19793 whole entry, chain 2 of 2): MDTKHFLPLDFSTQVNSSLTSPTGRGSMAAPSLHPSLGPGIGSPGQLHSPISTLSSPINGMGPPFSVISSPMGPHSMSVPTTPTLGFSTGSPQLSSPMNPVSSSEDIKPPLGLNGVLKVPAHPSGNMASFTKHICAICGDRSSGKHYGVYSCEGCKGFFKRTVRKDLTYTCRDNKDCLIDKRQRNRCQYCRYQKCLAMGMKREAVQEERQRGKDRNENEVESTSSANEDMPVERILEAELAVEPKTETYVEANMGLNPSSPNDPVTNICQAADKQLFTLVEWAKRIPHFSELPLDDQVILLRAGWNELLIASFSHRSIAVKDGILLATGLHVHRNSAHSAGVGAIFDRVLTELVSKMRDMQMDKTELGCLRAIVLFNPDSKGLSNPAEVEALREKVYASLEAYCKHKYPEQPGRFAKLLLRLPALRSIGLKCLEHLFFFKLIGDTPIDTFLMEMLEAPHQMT
Sequence of FXR:RXRa (Q96RI1 whole entry, chain 1 of 2): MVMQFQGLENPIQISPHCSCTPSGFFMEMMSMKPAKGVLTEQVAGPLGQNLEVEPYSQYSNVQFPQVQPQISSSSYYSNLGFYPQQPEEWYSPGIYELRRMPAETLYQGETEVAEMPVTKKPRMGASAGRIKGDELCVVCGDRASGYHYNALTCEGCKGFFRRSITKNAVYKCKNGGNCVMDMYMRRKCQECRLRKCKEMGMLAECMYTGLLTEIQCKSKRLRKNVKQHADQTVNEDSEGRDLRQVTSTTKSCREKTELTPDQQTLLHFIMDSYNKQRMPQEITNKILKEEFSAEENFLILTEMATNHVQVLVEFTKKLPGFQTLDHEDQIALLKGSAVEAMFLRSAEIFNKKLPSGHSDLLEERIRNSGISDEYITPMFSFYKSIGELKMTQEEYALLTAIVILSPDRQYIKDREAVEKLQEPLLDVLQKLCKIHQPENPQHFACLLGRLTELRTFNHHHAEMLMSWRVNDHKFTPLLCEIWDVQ
Sequence of FXR:RXRa (P19793 whole entry, chain 2 of 2): as the sequence (P19793 whole entry, chain 2 of 2) above
Sequence of PXR:RXRa (O75469 whole entry, chain 1 of 2): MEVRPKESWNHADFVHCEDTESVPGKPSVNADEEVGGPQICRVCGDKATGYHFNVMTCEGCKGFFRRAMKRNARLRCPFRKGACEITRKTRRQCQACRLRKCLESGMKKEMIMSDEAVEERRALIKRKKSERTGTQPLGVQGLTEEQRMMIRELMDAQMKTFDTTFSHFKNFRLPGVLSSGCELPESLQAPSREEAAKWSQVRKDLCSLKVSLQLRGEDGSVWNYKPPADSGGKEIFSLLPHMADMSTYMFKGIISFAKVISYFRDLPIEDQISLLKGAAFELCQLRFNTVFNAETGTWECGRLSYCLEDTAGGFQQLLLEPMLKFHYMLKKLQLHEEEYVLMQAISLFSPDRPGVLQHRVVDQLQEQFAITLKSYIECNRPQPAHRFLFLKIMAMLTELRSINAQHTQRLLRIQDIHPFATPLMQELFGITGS
Sequence of PXR:RXRa (P19793 whole entry, chain 2 of 2): as the sequence (P19793 whole entry, chain 2 of 2) above
Sequence of RXRa (P19793 whole entry): as the sequence (P19793 whole entry, chain 2 of 2) above
Sequence of LXRa:RXRa (Q13133 whole entry, chain 1 of 2): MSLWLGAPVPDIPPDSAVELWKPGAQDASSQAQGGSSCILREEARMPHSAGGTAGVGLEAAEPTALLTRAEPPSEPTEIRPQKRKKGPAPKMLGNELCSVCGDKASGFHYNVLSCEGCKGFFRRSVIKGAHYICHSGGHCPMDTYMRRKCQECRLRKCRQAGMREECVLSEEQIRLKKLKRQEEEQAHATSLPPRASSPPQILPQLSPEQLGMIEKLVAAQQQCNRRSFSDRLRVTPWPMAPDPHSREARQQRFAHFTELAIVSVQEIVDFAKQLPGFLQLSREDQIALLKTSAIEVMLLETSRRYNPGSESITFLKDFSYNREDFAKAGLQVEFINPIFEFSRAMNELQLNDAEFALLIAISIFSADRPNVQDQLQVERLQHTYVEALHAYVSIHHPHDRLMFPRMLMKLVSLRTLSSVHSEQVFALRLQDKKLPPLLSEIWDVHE
Sequence of LXRa:RXRa (P19793 whole entry, chain 2 of 2): as the sequence (P19793 whole entry, chain 2 of 2) above

B1: NRC3_wobSeed18_DR0_G23A_o1 (dsDNA)
DNA 1: GCGATACAGGGTCAAGGCCAGAATACGCGTATTGATGCGATTGACAGCGTAGAATGAAGG
DNA 2: CCTTCATTCTACGCTGTCAATCGCATCAATACGCGTATTCTGGCCTTGACCCTGTATCGC
binding signal (PPARg:RXRa): 6.34 PBM z-score against 500 random probes

B2: NRC3_wobSeed34_DR1_C5A_o1 (dsDNA)
DNA 1: GCATAGAAAGGTCGAAGGTGAGTATACCCACCCGAAGCGATTGACAGCGTAGAATGAAGG
DNA 2: CCTTCATTCTACGCTGTCAATCGCTTCGGGTGGGTATACTCACCTTCGACCTTTCTATGC
binding signal (PPARg:RXRa): 5.06 PBM z-score against 500 random probes

B3: NRC3_wobSeed90_DR3_G15T_o1 (dsDNA)
DNA 1: GCCATACAGGGTCATCTAGGCCAGAGTAGGGACGGCGCGATTGACAGCGTAGAATGAAGG
DNA 2: CCTTCATTCTACGCTGTCAATCGCGCCGTCCCTACTCTGGCCTAGATGACCCTGTATGGC
binding signal (PPARg:RXRa): 5.29 PBM z-score against 500 random probes

B4: NRC3_wobSeed117_DR4_T11G_o1 (dsDNA)
DNA 1: GCCGTCAAAGGTCAACTAAGGTAACGTAAAGCACGCGCGATTGACAGCGTAGAATGAAGG
DNA 2: CCTTCATTCTACGCTGTCAATCGCGCGTGCTTTACGTTACCTTAGTTGACCTTTGACGGC
binding signal (RXRa): 9.06 PBM z-score against 500 random probes | binding signal (RARb:RXRa): 6.27 PBM z-score against 500 random probes | binding signal (LXRa:RXRa): 7.32 PBM z-score against 500 random probes | binding signal (PPARa:RXRa): 6.96 PBM z-score against 500 random probes | binding signal (LXRb:RXRa): 6.25 PBM z-score against 500 random probes | binding signal (FXR:RXRa): 8.82 PBM z-score against 500 random probes | binding signal (PXR:RXRa): 6.64 PBM z-score against 500 random probes | binding signal (RARg:RXRa): 8.38 PBM z-score against 500 random probes

B5: NRC3_wobSeed44_DR1_T13G_o1 (dsDNA)
DNA 1: GCTGAATGAGGTGAAAGATCAGGGAACGTGGCGTCGGCGATTGACAGCGTAGAATGAAGG
DNA 2: CCTTCATTCTACGCTGTCAATCGCCGACGCCACGTTCCCTGATCTTTCACCTCATTCAGC
binding signal (PPARg:RXRa): 6.9 PBM z-score against 500 random probes

B6: NRC3_wobSeed111_DR4_A17G_o1 (dsDNA)
DNA 1: GCCGAACTAGGTCAGAGCAGGACAGTGAAGGATGATGCGATTGACAGCGTAGAATGAAGG
DNA 2: CCTTCATTCTACGCTGTCAATCGCATCATCCTTCACTGTCCTGCTCTGACCTAGTTCGGC
binding signal (PPARg:RXRa): 5.81 PBM z-score against 500 random probes

B7: NRC3_wobSeed77_DR3_C16G_o1 (dsDNA)
DNA 1: GCACTTACGGGTCAAGGAGGTTATAGCACGCGTATAGCGATTGACAGCGTAGAATGAAGG
DNA 2: CCTTCATTCTACGCTGTCAATCGCTATACGCGTGCTATAACCTCCTTGACCCGTAAGTGC
binding signal (PPARg:RXRa): 5.22 PBM z-score against 500 random probes

B8: NRC3_wobSeed1_DR0_T8A_o1 (dsDNA)
DNA 1: GCCAAACAAGGTCAAGGTCAAAGTCGGTTTGTGCCAGCGATTGACAGCGTAGAATGAAGG
DNA 2: CCTTCATTCTACGCTGTCAATCGCTGGCACAAACCGACTTTGACCTTGACCTTGTTTGGC
binding signal (RXRa): 7.79 PBM z-score against 500 random probes | binding signal (RARb:RXRa): 6.01 PBM z-score against 500 random probes | binding signal (LXRa:RXRa): 6.69 PBM z-score against 500 random probes | binding signal (LXRb:RXRa): 5.84 PBM z-score against 500 random probes | binding signal (FXR:RXRa): 8.19 PBM z-score against 500 random probes | binding signal (PXR:RXRa): 6.47 PBM z-score against 500 random probes | binding signal (RARg:RXRa): 7.39 PBM z-score against 500 random probes

B9: NRC3_wobSeed69_DR2_T20C_o1 (dsDNA)
DNA 1: GCAGTCAAAGTTCACTAGGCAACGTAAGATTCAGCTGCGATTGACAGCGTAGAATGAAGG
DNA 2: CCTTCATTCTACGCTGTCAATCGCAGCTGAATCTTACGTTGCCTAGTGAACTTTGACTGC
binding signal (PPARg:RXRa): 6.68 PBM z-score against 500 random probes

B10: NRC3_wobSeed93_DR3_A18G_o1 (dsDNA)
DNA 1: GCAGTCAAAGTTCATCTGGGTAACGTAAGATATGCTGCGATTGACAGCGTAGAATGAAGG
DNA 2: CCTTCATTCTACGCTGTCAATCGCAGCATATCTTACGTTACCCAGATGAACTTTGACTGC
binding signal (PPARg:RXRa): 6.45 PBM z-score against 500 random probes

B11: NRC3_wobSeed93_DR3_C16T_o1 (dsDNA)
DNA 1: GCAGTCAAAGTTCATTTAGGTAACGTAAGATATGCTGCGATTGACAGCGTAGAATGAAGG
DNA 2: CCTTCATTCTACGCTGTCAATCGCAGCATATCTTACGTTACCTAAATGAACTTTGACTGC
binding signal (PPARg:RXRa): 5.92 PBM z-score against 500 random probes

B12: NRC3_wobSeed46_DR1_G13A_o1 (dsDNA)
DNA 1: GCTTACCAAGGTAAAAGGTCGTTGATGCACGCCTTGGCGATTGACAGCGTAGAATGAAGG
DNA 2: CCTTCATTCTACGCTGTCAATCGCCAAGGCGTGCATCAACGACCTTTTACCTTGGTAAGC
binding signal (PPARg:RXRa): 6.58 PBM z-score against 500 random probes

B13: NRC3_wobSeed5_DR0_A15C_o1 (dsDNA)
DNA 1: GCCCTTACGGGTCACGGTTATAGCACGGGTGGTACGGCGATTGACAGCGTAGAATGAAGG
DNA 2: CCTTCATTCTACGCTGTCAATCGCCGTACCACCCGTGCTATAACCGTGACCCGTAAGGGC
binding signal (PPARg:RXRa): 6.21 PBM z-score against 500 random probes

B14: NRC3_wobSeed30_DR1_C8A_o1 (dsDNA)
DNA 1: GCACTAGAAGGCCAAGGGTCACTCAAGATTAGTCCGGCGATTGACAGCGTAGAATGAAGG
DNA 2: CCTTCATTCTACGCTGTCAATCGCCGGACTAATCTTGAGTGACCCTTGGCCTTCTAGTGC
binding signal (PPARg:RXRa): 6.78 PBM z-score against 500 random probes

B15: NRC3_wobSeed135_DR5_A5C_o1 (dsDNA)
DNA 1: GCCGCACTAGGTCATTGACAGGACAGTGAATAGTAAGCGATTGACAGCGTAGAATGAAGG
DNA 2: CCTTCATTCTACGCTGTCAATCGCTTACTATTCACTGTCCTGTCAATGACCTAGTGCGGC
binding signal (PPARg:RXRa): 7.03 PBM z-score against 500 random probes

B16: NRC3_wobSeed27_DR1_C13T_o1 (dsDNA)
DNA 1: GCACTCGGAGGATAAAGGTCAGAGCTACGCCAGTGAGCGATTGACAGCGTAGAATGAAGG
DNA 2: CCTTCATTCTACGCTGTCAATCGCTCACTGGCGTAGCTCTGACCTTTATCCTCCGAGTGC
binding signal (PPARg:RXRa): 6.02 PBM z-score against 500 random probes

B17: NRC3_wobSeed43_DR1_A25C_o1 (dsDNA)
DNA 1: GCCCAGACAGGTGAAAGGTAACTCCGTCTGGTACGCGCGATTGACAGCGTAGAATGAAGG
DNA 2: CCTTCATTCTACGCTGTCAATCGCGCGTACCAGACGGAGTTACCTTTCACCTGTCTGGGC
binding signal (PPARg:RXRa): 5.61 PBM z-score against 500 random probes

B18: NRC3_wobSeed109_DR4_G4C_o1 (dsDNA)
DNA 1: GCCCTCCAAGGTCATAGGAGGTCAGTGAAGACAGATGCGATTGACAGCGTAGAATGAAGG
DNA 2: CCTTCATTCTACGCTGTCAATCGCATCTGTCTTCACTGACCTCCTATGACCTTGGAGGGC
binding signal (PPARg:RXRa): 5.72 PBM z-score against 500 random probes

B19: NRC3_wobSeed25_DR1_T25A_o1 (dsDNA)
DNA 1: GCCAAACTAGGTCAAAGGTCAAAGACGAGCCAACCAGCGATTGACAGCGTAGAATGAAGG
DNA 2: CCTTCATTCTACGCTGTCAATCGCTGGTTGGCTCGTCTTTGACCTTTGACCTAGTTTGGC
binding signal (PPARg:RXRa): 14.6 PBM z-score against 500 random probes

B20: NRC3_wobSeed25_DR1_T8C_o1 (dsDNA)
DNA 1: GCCAAACCAGGTCAAAGGTCAAAGTCGAGCCAACCAGCGATTGACAGCGTAGAATGAAGG
DNA 2: CCTTCATTCTACGCTGTCAATCGCTGGTTGGCTCGACTTTGACCTTTGACCTGGTTTGGC
binding signal (RXRa): 10.8 PBM z-score against 500 random probes | binding signal (VDR:RXRa): 7.07 PBM z-score against 500 random probes | binding signal (LXRa:RXRa): 7.81 PBM z-score against 500 random probes | binding signal (FXR:RXRa): 8.73 PBM z-score against 500 random probes | binding signal (PXR:RXRa): 7.42 PBM z-score against 500 random probes

B21: NRC3_wobSeed138_DR5_G15T_o1 (dsDNA)
DNA 1: GCGATACAGGGTCATCTAGAGGCCAGAGTATGGAAAGCGATTGACAGCGTAGAATGAAGG
DNA 2: CCTTCATTCTACGCTGTCAATCGCTTTCCATACTCTGGCCTCTAGATGACCCTGTATCGC
binding signal (PPARg:RXRa): 6.11 PBM z-score against 500 random probes

B22: NRC3_wobSeed113_DR4_A28C_o1 (dsDNA)
DNA 1: GCATATGTAGGTTAGCTGGGGTCATTCCGACTAGGCGCGATTGACAGCGTAGAATGAAGG
DNA 2: CCTTCATTCTACGCTGTCAATCGCGCCTAGTCGGAATGACCCCAGCTAACCTACATATGC
binding signal (PPARg:RXRa): 5.53 PBM z-score against 500 random probes

B23: NRC3_wobSeed113_DR4_G15T_o1 (dsDNA)
DNA 1: GCATATGTAGGTTATCTGGGGTCATTCAGACTAGGCGCGATTGACAGCGTAGAATGAAGG
DNA 2: CCTTCATTCTACGCTGTCAATCGCGCCTAGTCTGAATGACCCCAGATAACCTACATATGC
binding signal (VDR:RXRa): 6.99 PBM z-score against 500 random probes | binding signal (LXRa:RXRa): 8.36 PBM z-score against 500 random probes | binding signal (LXRb:RXRa): 7.25 PBM z-score against 500 random probes | binding signal (PXR:RXRa): 6.87 PBM z-score against 500 random probes
